In patent publication US20250145705A1 (SHANDONG SIMCERE BIOPHARMACEUTICAL, published 2025):
Several values for one entry are separate records, joined by “and”; a condition that tells them apart may be missing. Identical values can stand only once.

What was measured:
[1] = biological target: monkey GPRC5D (monkey (cyno)); assay: FACS, HEK293T-cynoGPRC5D high pool
human GPRC5D [2] = biological target: T1, human GPRC5D (human, UniProt Q9NZD1 1-345); assay: FACS, CHOK1-hGPRC5D high pool
T1 construct: the cell line is named under assay; also called hGPRC5D; G protein coupled receptor C5 family subtype D
T1 sequence (Q9NZD1 whole entry): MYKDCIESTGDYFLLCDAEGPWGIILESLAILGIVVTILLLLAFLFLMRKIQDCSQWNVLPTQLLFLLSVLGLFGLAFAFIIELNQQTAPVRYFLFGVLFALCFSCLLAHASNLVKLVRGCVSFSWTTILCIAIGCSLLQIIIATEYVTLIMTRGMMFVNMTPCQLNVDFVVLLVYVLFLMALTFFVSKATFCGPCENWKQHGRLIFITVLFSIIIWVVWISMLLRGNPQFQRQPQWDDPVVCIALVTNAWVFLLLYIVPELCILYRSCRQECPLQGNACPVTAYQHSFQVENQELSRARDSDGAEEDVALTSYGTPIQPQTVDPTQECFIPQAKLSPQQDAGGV

human GPRC5D [3] = biological target: T1, human GPRC5D; assay: FACS, HEK293T-hGPRC5D high pool
[4] = biological target: monkey GPRC5D (monkey (cyno)); assay: FACS, CHOK1-cynoGPRC5D high pool
[5] = biological target: hGPRC5D-LVP protein (human) (UniProt Q9NZD1); assay: competitive ELISA, competitor Biotin-5F11; antibody at 50.00 nM
Chain of hGPRC5D-LVP protein (human) (Q9NZD1 whole entry): as above

[6] = biological target: hGPRC5D-LVP protein (human) (UniProt Q9NZD1); assay: competitive ELISA, competitor Biotin-5F11; antibody at 1.85 nM
[7] = biological target: hGPRC5D-LVP protein (human) (UniProt Q9NZD1); assay: competitive ELISA, competitor Biotin-5F11; antibody at 0.62 nM
[8] = biological target: hGPRC5D-LVP protein (human) (UniProt Q9NZD1); assay: competitive ELISA, competitor Biotin-5F11; antibody at 5.56 nM
[9] = biological target: hGPRC5D-LVP protein (human) (UniProt Q9NZD1); assay: competitive ELISA, competitor Biotin-5F11; antibody at 0.21 nM
human GPRC5D [10] = biological target: T1, human GPRC5D; assay: FACS, MolP-8 cells
[11] = biological target: hGPRC5D-LVP protein (human) (UniProt Q9NZD1); assay: competitive ELISA, competitor Biotin-5F11; antibody at 0 nM
human GPRC5D [12] = biological target: T1, human GPRC5D; assay: FACS, NCI-H929 cells
Experimental: (§1) The desired cells were scale-up cultured in a T-75 cell culture flask to the logarithmic growth phase. NCI-H929, MolP-8 and RPMI-8226 cells were collected and washed with PBS buffer 2 times. After counting the cells, the cell pellet was resuspended with [PBS+2% (w/v) BSA] blocking solution to 2×10⁶ cells/ml, and added to a 96-well FACS reaction plate at 50 μl/well, and then the chimeric antibody test sample was added at 50 μl/well, and incubated on ice for 1 h. […] The obtained mixture was centrifuged and washed 3 times with a PBS buffer, and FACS (FACS CantoII, purchased from BD Company) was used for detection and result analysis. Data analysis was performed by software (Flowjo) to obtain the mean fluorescence intensity (MFI) of the cells. Then a software (GraphPad Prism8) was used for analysis, the analysis results are shown in Table 9 and FIGS. 9A-9C, 10A-10C and 11A-11C.

human GPRC5D [13] = biological target: T1, human GPRC5D; assay: FACS, RPMI-8226 cells
Experimental: as §1

[14] = biological target: hGPRC5D-LVP protein (human) (UniProt Q9NZD1); assay: competitive ELISA, competitor Biotin-5F11; antibody at 16.67 nM
[15] = biological target: hGPRC5D-LVP protein (human) (UniProt Q9NZD1); assay: competitive ELISA, competitor Biotin-5F11; antibody at 0.07 nM

Chain of monkey GPRC5D (monkey (cyno)) (Q9NZD1 other isoform, or with tags, fused parts or gaps): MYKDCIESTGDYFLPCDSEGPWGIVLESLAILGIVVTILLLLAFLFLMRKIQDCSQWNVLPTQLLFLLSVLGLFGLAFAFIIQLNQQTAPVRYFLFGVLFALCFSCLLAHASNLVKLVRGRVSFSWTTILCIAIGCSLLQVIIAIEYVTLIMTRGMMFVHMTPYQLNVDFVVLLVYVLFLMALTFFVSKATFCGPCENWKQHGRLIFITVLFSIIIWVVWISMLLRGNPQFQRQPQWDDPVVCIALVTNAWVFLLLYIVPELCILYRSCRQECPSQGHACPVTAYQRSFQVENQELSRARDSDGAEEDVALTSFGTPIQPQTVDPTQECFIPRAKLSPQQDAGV

## IgG subtype control (antibody)
[1]
  Mean fluorescence density: 18.2
Human GPRC5D [2]
  Mean fluorescence intensity: 56.4
Human GPRC5D [3]
  Cell mean fluorescence density: 18.9
[4]
  Mean fluorescence density: 52.9

## anti-hel-hIgG1 (antibody)
[5]
  OD450: 1.16 and 0.63 and 0.89
[6]
  OD450: 1.16 and 0.7 and 0.89
[7]
  OD450: 1.2 and 0.67 and 0.88
[8]
  OD450: 1.14 and 0.69 and 0.87
[9]
  OD450: 1.27 and 0.68 and 0.87
Human GPRC5D [10]
  Maximum mean fluorescence intensity: 81 and 103 and 90
[11]
  OD450: 1.22 and 0.57 and 0.94
Human GPRC5D [12]
  Maximum mean fluorescence intensity: 85 and 74
Human GPRC5D [13]
  Maximum mean fluorescence intensity: 108 and 106 and 85
[14]
  OD450: 1.15 and 0.65 and 0.9
[15]
  OD450: 1.24 and 0.62 and 0.92

B1: 5F11-hIgG1 (antibody, V domains shown)
VH: EVQLVESGGGLVQPGRSLKLSCAASGFSFSNYGMAWVRQAATKGLEWVASISTGGGNTYYRDSVKGRFIVSRDNAKNTQYLQMDSLRSEDTATYYCTRHDRGGLYWGQGVMVTVSS
VL: DIVMTQAPLSVSVTPGESASISCRSSKSLLHSNGITYVYWYFQKPGKSPQVLIYRMSNLASGVPDRFSGSGSETDFTLKISRVEAEDVGIYHCGQLLENPYTFGAGTELELKR
notes: Control antibody; VH and VL from WO 2019154890 A1 recombined into human IgG1 CH and CL expression vectors; also called h5F11-hIgG1; positive control antibody 5F11
Human GPRC5D [12]
  EC50: 1.25 nM and 3.5 nM and 1.97 nM
Human GPRC5D [13]
  EC50: 3.17 nM and 2.86 nM and 6.48 nM
